Source: PMC9407465

How the values were obtained:
[1] = luciferase reporters; conditions: glycan lost
[2] = GLI2 level in Daoy cells; conditions: glycan lost; control: DMSO
[3] = IP and acetylation immunoblot
[4] = Gli2 level in primary GNPs; conditions: glycan lost; control: untreated GNPs
[5] = Bcl2 promoter luciferase, HEK293T; conditions: WT Gli2
[6] = IP immunoblot from P30 cerebellum; conditions: glycan lost; control: SmoM2Atoh1 mice

B1: human GLI2: S358A (protein)
parent chain: METSASATASEKQEAKSGILEAAGFPDPGKKASPLVVAAAAAAAVAAQGVPQHLLPPFHAPLPIDMRHQEGRYHYEPHSVHGVHGPPALSGSPVISDISLIRLSPHPAGPGESPFNAPHPYVNPHMEHYLRSVHSSPTLSMISAARGLSPADVAQEHLKERGLFGLPAPGTTPSDYYHQMTLVAGHPAPYGDLLMQSGGAASAPHLHDYLNPVDVSRFSSPRVTPRLSRKRALSISPLSDASLDLQRMIRTSPNSLVAYINNSRSSSAASGSYGHLSAGALSPAFTFPHPINPVAYQQILSQQRGLGSAFGHTPPLIQPSPTFLAQQPMALTSINATPTQLSSSSNCLSDTNQNKQSSESAVSSTVNPVAIHKRSKVKTEPEGLRPASPLALTQGQVSGHGSCGCALPLSQEQLADLKEDLDRDDCKQEAEVVIYETNCHWEDCTKEYDTQEQLVHHINNEHIHGEKKEFVCRWQACTREQKPFKAQYMLVVHMRRHTGEKPHKCTFEGCSKAYSRLENLKTHLRSHTGEKPYVCEHEGCNKAFSNASDRAKHQNRTHSNEKPYICKIPGCTKRYTDPSSLRKHVKTVHGPDAHVTKKQRNDVHLRTPLLKENGDSEAGTEPGGPESTEASSTSQAVEDCLHVRAIKTESSGLCQSSPGAQSSCSSEPSPLGSAPNNDSGVEMPGTGPGSLGDLTALDDTPPGADTSALAAPSAGGLQLRKHMTTMHRFEQLKKEKLKSLKDSCSWAGPTPHTRNTKLPPLPGSGSILENFSGSGGGGPAGLLPNPRLSELSASEVTMLSQLQERRDSSTSTVSSAYTVSRRSSGISPYFSSRRSSEASPLGAGRPHNASSADSYDPISTDASRRSSEASQCSGGSGLLNLTPAQQYSLRAKYAAATGGPPPTPLPGLERMSLRTRLALLDAPERTLPAGCPRPLGPRRGSDGPTYGHGHAGAAPAFPHEAPGGGARRASDPVRRPDALSLPRVQRFHSTHNVNPGPLPPCADRRGLRLQSHPSTDGGLARGAYSPRPPSISENVAMEAVAAGVDGAGPEADLGLPEDDLVLPDDVVQYIKAHASGALDEGTGQVYPTESTGFSDNPRLPSPGLHGQRRMVAADSNVGPSAPMLGGCQLGFGAPSSLNKNNMPVQWNEVSSGTVDALASQVKPPPFPQGNLAVVQQKPAFGQYPGYSPQGLQASPGGLDSTQPHLQPRSGAPSQGIPRVNYMQQLRQPVAGSQCPGMTTTMSPHACYGQVHPQLSPSTISGALNQFPQSCSNMPAKPGHLGHPQQTEVAPDPTTMGNRHRELGVPDSALAGVPPPHPVQSYPQQSHHLAASMSQEGYHQVPSLLPARQPGFMEPQTGPMGVATAGFGLVQPRPPLEPSPTGRHRGVRAVQQQLAYARATGHAMAAMPSSQETAEAVPKGAMGNMGSVPPQPPPQDAGGAPDHSMLYYYGQIHMYEQDGGLENLGSCQVMRSQPPQPQACQDSIQPQPLPSPGVNQVSSTVDSQLLEAPQIDFDAIMDDGDHSSLFSGALSPSLLHSLSQNSSRLTTPRNSLTLPSIPAGISNMAVGDMSSMLTSLAEESKFLNMMT
For B1, the “other: transcriptional activity” value ([1]; control: wild type GLI2) was “decreases”.

B2: human GLI2: S358D (protein)
parent chain: B1 parent chain
For B2, the “other: transcriptional activity” value ([1]; control: wild type GLI2) was “decreases”.

B3: human GLI2: OSMI-1 (protein)
parent chain: B1 parent chain
For B3, the expression_or_secretion [2] was “decreases”.

B4: Gli2 (GLI family zinc finger 2): S355A (protein)
parent chain: METSAPAPALEKKEAKSGLLEDSSFPDPGKKACPLAVAAAVAAHGVPQQLLPAFHAPLPIDMRHQEGRYHYDPHSVHSVHGPPTLSGSPVISDISLIRLSPHPAGPGESPFSAHHPYVNPHMEHYLRSVHSSPTLSMISAARGLSPADVAHEHLKERGLFSLAAPGTNPSDYYHQMTLMASHPTPYGDLLMQSGGAASAPHLHDYLNPVDASRFSSPRVTPRLSRKRALSISPLSDASLDLQRMIRTSPNSLVAYINNSRSSSAASGSYGHLSAGALSPAFTFPHPINPVAYQQILSQQRGLGSAFGHTPPLIQPSPTFLAQQPMTLTSISTMPTQLSSSSSNCLNDANQNKQNSESAVSSTVNPITIHKRSKVKTEAEGLRPASPLGLTQEQLADLKEDLDRDDCKQEAEVVIYETNCHWADCTKEYDTQEQLVHHINNEHIHGEKKEFVCRWQACTREQKPFKAQYMLVVHMRRHTGEKPHKCTFEGCSKAYSRLENLKTHLRSHTGEKPYVCEHEGCNKAFSNASDRAKHQNRTHSNEKPYICKIPGCTKRYTDPSSLRKHVKTVHGPDAHVTKKQRNDVHVRAPLLKENGDNEASAEPGGRGPEESVEASSTSHTVEDCLHIKAIKTESSGLCQSSPGAQSSCSSEPSPLGSAPNNDSGMEMPGTGPGSLGDLTALADTCPGADTSALAAPSTGGLQLRKHMSTVHRFEQLKREKLKSLKDSCSWAGPAPHTRNTKLPPLPVNGSVLENFNNTGGGGPAGLLPSQRLPELTEVTMLSQLQERRDSSTSTMSSAYTVSRRSSGISPYFSSRRSSEASPLGGLRPHNASSADSYDPISTDASRRSSEASQCSGGGPGLLNLTPAQQYNLRAKYAAATGGPPPTPLPGLDRVSLRTRLALLDAPERALPGACPHPLGPRRGSDGPTYSHGHGHGYAGAAPAFPHEGPNSSTRRASDPVRRPDPLILPRVQRFHSTHNMNPGSLPPCADRRGLHVQSHPSVDSNLTRNAYSPRPPSINENVVMEAVAAGVDGPGLECDLGLVEDELVLPDDVVQYIKAHTGGTLDDGIRQGYPTEGTGFPENSKLPSPGLQGHRRLAAADSNMGPSAPGLGGCQLSYSPSSNLNKSNMPVQWNEVSSGTVDALPTQVKPPPFPHSNLAVVQQKPAFGQYPGYNPQSVQSSSGGLDSTQPHLQLRGAPSASRGSYTQQPRQPAAGSQCLGMSAAMSPQASYSQAHPQLSPNIVSGSLNQFSPSCSNMAAKPSHLGLPQQMEVVPNATIMNGHQREHGVPNSSLAAVSQPHPVLSYPQQDSYQQGSNLLSSHQPGFMESQQNAGFGLMQPRPPLEPNTASRHRGVRSGQQQLYARTTGQAMVTSANQETAEAMPKGPAGTMVSLAPQPSQDTGRAQDQNTLYYYGQIHMYEQNGGCPAVQPQPPQPQACSDSIQPEPLPSPGVNQVSSTVDSQLLEPPQIDFDAIMDDGDHSSLFSGALSPTLLHNLSQNSSRLTTPRNSLTLPSIPAGISNMAVGDMSSMLTSLAEESKFLNMMT
In the case of B4, the “other: Gli2 acetylation” value ([3]; glycan lost, control: wild type Gli2) is reported as “increases” and the “other: transcriptional activity” value ([1]; control: wild type Gli2) is reported as “decreases”.

B5: Gli2 (GLI family zinc finger 2): S355D (protein)
parent chain: B4 parent chain
With B5 the “other: transcriptional activity” value ([1]; control: wild type Gli2) was “decreases”.

B6: Gli2 (GLI family zinc finger 2): OSMI-1 (protein)
parent chain: B4 parent chain
In the case of B6, the expression_or_secretion [4] is reported as “decreases”, the “other: Gli2 acetylation” value ([3]; glycan lost, control: untreated, WT Gli2) is reported as “increases” and the “other: transcriptional activity” value ([5]; glycan lost, control: DMSO) is reported as “decreases”.

B7: Gli2 (GLI family zinc finger 2): SmoM2Atoh1;OGTAtoh1 (OGT knockout in GNPs) (protein)
parent chain: B4 parent chain
For B7, the “other: Gli2 acetylation” value [6] was “increases”.

B8: Gli2 (GLI family zinc finger 2): OGT overexpression (protein)
parent chain: B4 parent chain
With B8 the “other: Gli2 acetylation” value ([3]; glycan gained, control: without OGT overexpression) was “decreases” and the “other: transcriptional activity” value ([5]; glycan gained, control: pEGFP-C1 vector) was “increases”.
